{"source": "IntAct's records for PubMed 20010802", "molecular_target": "mlp3a_human MAP1LC3A (UniProt Q9H492)"}
{"substance": "BCL2/adenovirus E1B 19 kDa protein-interacting protein 3-like (Mus musculus), Q9Z2F7 L38A", "values": [{"measurement": "effect of a mutation on the interaction", "result": "disrupting interaction"}]}
